Data set [1] has as its system N2a cells. Kind of data set: N2a proliferation, cell number at DIV5. The data set is classed as cell-based, murine. The settings on record: 200 ng daily, vs GFP. On the procedure:
Next, 10,000 naive N2a cells were seeded and treated daily with 200 ng Negr1, PepA, PepB, PepC, or GFP. At DIV5, cell number was evaluated.

Data set [2] relates to N2a cells. In words: N2a cell growth, MTT assay. Conditions: 500 ng/ml daily, vs GFP. The data set is classed as cell-based, murine. On the procedure:
(§1) The 3-(4,5-dimethylthiazol-2-yl)-2,5-diphenyl tetrazolium bromide (MTT) assay was performed to evaluate culture vitality. N2a cells were cultured in a 96-well plate at a concentration of 5×10^3 cell/cm^2. Treatment condition is indicated in the result section. At the end of the treatment, the MTT solution was added to the cell medium at a final concentration of 0.25 mg/mL. The incubation lasted 30 minutes at 37° C. Next, the medium was removed and the formazan precipitates were collected in DMSO (200 μL). The absorbance was measured at 570 nm using a spectrophotometer (Varioskan LUX, Thermofisher) as a proxy for cell viability. Relative cell viability fold is expressed over the control condition.
At the physiological level, Negr1 exists as a GPI-anchored membrane-bound protein and as a soluble protein released upon metalloprotease cleavage (Sanz et al. 2015; Pischedda and Piccoli 2015). Thus, the inventors studied whether ectopic treatment with soluble recombinant Negr1 (Negr1) might modulate cancer cell growth. […] At DIV5, cellular growth was evaluated by MTT assay.
To further narrow down the minimal biologically active sequence within PepA, the PepA structure was analysed in silico. […] At DIV5, cellular growth was evaluated by MTT assay.
On the technique in general: Tetrazolium dyes change colour on reduction, which living cells bring about.

The nature of data set [3]: Presence in tumor, liver and kidney by STREP-pulldown after in situ injection. The data set is classed as in vivo, mice. Conditions: after in situ injection of 2 μg every second day, day 9. On the procedure:
HEK293 cells transfected with the relative construct were lysed in RIPA buffer (150 mM NaCl, 50 mM HEPES, 0.5% NP40, 1% Sodium-deoxycholate) for one hour at 4° C. and then processed for streptavidin immunoprecipitation. Proteins were eluted from STREP resin in elution buffer (2.5 mM Desthiobiotin, 100 mM Tris-HCL, 150 mM NaCl, 1 mM EDTA) in mild agitation for one hour at 4° C. The protein concentration was measured via standard Bradford assay (Bio-Rad), and protein purity was assessed by SDS-PAGE followed by silver staining. Synthetic peptides were purchased at Genscript Nederland. Mice tissues were lysed in RIPA buffer (150 mM NaCl, 50 mM HEPES, 0.5% NP40, 1% Sodium-deoxycholate, 1 ml/mg of tissue) for one hour at 4° C. and then processed for streptavidin immunoprecipitation. Proteins were eluted from STREP resin in Laemmli buffer.
At day 9 post injection (or earlier in case the tumor reached 2.5 cm^3 volume), the animals were sacrificed and the mice tissues were harvested and analysed for the presence of GFP and PepA.

The subject of data set [4] is ALK. Kind of data set: ALK protein expression level in N2a cells, western blotting. The format is cell-based, murine. Conditions: 300 ng/ml daily for 5 days, vs GFP. On the procedure:
Protein level and relative phosphorylation was assessed by western blotting. Briefly, upon a wash in PBS, cells were solubilized in lysis buffer (150 mM NaCl, 50 mM HEPES, 0.5% NP40, 1% sodium-deoxycholate). After 1 hour under mild agitation, the lysate was clarified by centrifugation for 20 min at 16,000 g. All experimental procedures were performed at 4° C. Protein concentrations were evaluated via Bradford assay (Bio-Rad, USA). For Western blotting experiments, an equal amount of proteins was diluted with 0.25% 5× Laemmli buffer. The samples were separated on 10% SDS-PAGE gels which were transferred onto nitrocellulose membrane (Sigma-Aldrich) at 80 V for 120 min at 4° C. […] Antibodies were applied overnight in blocking buffer (20 mM Tris, pH 7.4, 150 mM NaCl, 0.1% Tween 20, and 5% nonfat dry milk). Proteins were detected using the ECL prime detection system (GE Healthcare). The ECL signals were acquired with the imaging ChemiDoc Touch system (Bio Rad Laboratory Italy, Segrate, Italy). The optical density of the specific bands was quantified with ImageLab software (Bio Rad).

Data set [5] relates to MYCN. Kind of data set: MYCN protein expression level in N2a cells, western blotting. The data set is classed as cell-based, murine. The settings on record: 300 ng/ml daily for 5 days, vs GFP. On the procedure:
Protein level and relative phosphorylation was assessed by western blotting. Briefly, upon a wash in PBS, cells were solubilized in lysis buffer (150 mM NaCl, 50 mM HEPES, 0.5% NP40, 1% sodium-deoxycholate). After 1 hour under mild agitation, the lysate was clarified by centrifugation for 20 min at 16,000 g. All experimental procedures were performed at 4° C. Protein concentrations were evaluated via Bradford assay (Bio-Rad, USA). For Western blotting experiments, an equal amount of proteins was diluted with 0.25% 5× Laemmli buffer. The samples were separated on 10% SDS-PAGE gels which were transferred onto nitrocellulose membrane (Sigma-Aldrich) at 80 V for 120 min at 4° C. […] Proteins were detected using the ECL prime detection system (GE Healthcare). […] The optical density of the specific bands was quantified with ImageLab software (Bio Rad).
The inventors monitored whether treatment with rNegr1 or PepA might impact on ALK-MYCN pathway. […] At DIV5, the culture was processed for western blotting and ALK and MYCN protein expression levels were evaluated.
At DIV5, the culture was processed for western-blotting, and ALK and MYCN protein expression was evaluated.
(In western blotting, separated proteins are transferred to a membrane and probed.)

Data set [6] deals with SH-SY5Y (neuroblastoma). In words: Growth of human cancer-derived cell line, MTT assay. The format is cell-based. Conditions: 200 ng daily, vs GFP. As for the experimental part:
as §1
(§2) Next, the capability of Negr1 and peptide PepA to halt the growth of human cancer-derived cell lines, namely U87 (glioblastoma), SK-Mel5 (melanoma), MCF7 (breast adenocarcinoma), A549 (adenocarcinoma alveolar basal epithelial cells), and SH-SY5Y (neuroblastoma) was tested. To this aim, each line was treated daily with 200 ng GFP, rNegr1, or PepA. At DIV5, cellular growth was evaluated by MTT assay. […] Such results are in good agreement with the expression of the receptor ALK, that has been experimentally detected in cancer cell lines of ectodermal origin (including small cell lung carcinoma, breast carcinoma, melanoma, neuroblastoma, and glioblastoma) (Dirks et al. 2002).

For data set [7], the system named is MCF7 (breast adenocarcinoma). Described as above. The data set is classed as cell-based. Conditions: 200 ng daily, vs GFP. As for the experimental part:
as §1, §2

Data set [8] relates to SK-Mel5 (melanoma). The data set is described as above. The data set is classed as cell-based. Conditions: 200 ng daily, vs GFP. On the procedure: as §1, §2
For data set [9], the system named is U87 (glioblastoma). The data set is described as above. The data set is classed as cell-based. Conditions: 200 ng daily, vs GFP. As for the experimental part: as §1, §2
Data set [10] has as its system A549 (adenocarcinoma alveolar basal epithelial cells). Described as above. The data set is classed as cell-based. Conditions: 200 ng daily, vs GFP. On the procedure:
as §1, §2

Data set [11] deals with CD34. In words: Tumor neo-vascularization by CD34 immunofluorescence. The format is in vivo, mice. The settings on record: tumors treated in situ, vs GFP. On the procedure: Tumors were dissected, post-fixed for 2 hours by immersion in 4% PFA, then included in OCT and stored at −80° C. until processing. 14 μm sections were obtained after serial sectioning on Leica cryostat and mounted on Polysine Slides (Thermo Fischer Scientific). The slices were saturated in 2.5% BSA, 10% NGS, 0.2% Triton X-100, PBS 1×, for 1 hour at RT and incubated with the primary antibody O/N at 4° C. (Anti-CD34 antibody [EP373Y], ABCAM, ab81289). After 3 washes in PBS 1×-0.2% Triton X-100 the sections were incubated for 1 h with the conjugated secondary antibody at RT (AffiniPure Goat Anti-Rabbit IgG (H+L) Alexa Fluor 594, Jackson ImmunoResearch, 111-585-003). The slices were then rinsed 3 times in PBS 1×-0.2% Triton X-100, rinsed once in PBS1× and then mounted in water-based mounting media. Sections were kept at 4° C. in the dark until acquisition with a Zeiss Axio Imager M2 equipped with 40× objective.
Cancer growth requires and triggers vascularization. In particular, cancer mass is characterized by the presence of immature vessels decorated by CD34 protein. Thus, the inventors analyzed tumor neo-vascularization by detecting CD34 protein.

Data set [12] concerns N2a cells. In words: N2a xenograft tumor growth in CD1 nude mice. The data set is classed as in vivo. As for the experimental part:
1 million N2a cells were suspended in 150 μl of DMEM high glucose and delivered subcutaneously above the left rear paw in 8-week old nu/nu mice (Charles River) by injection with a micro-syringe (Hamilton). All procedures involving animals were approved by Institutional and National Agencies (authorization 559/2016-PR).
Xenograft mouse models represent an established tool to investigate cancer progression in vivo. To this aim, 1 million N2a cells (naive, clone 3, and clone 11) was injected subcutaneously (s.c.) in immunodeficient CD1 nude mice. Tumor volume was monitored […] by measuring tumor size with a Vernier caliper. Tumor volume was calculated using the ellipsoid formula (length×width×height×0.52).
To further assess the anti-neoplastic activity of PepA, 1 million N2a cells were injected s.c in 6-weeks old CD1 nude mice. When the tumor reached 100 mm^3 volume, 2 μg of GFP or PepA were injected in situ. The treatment was repeated every second day, and tumor growth was monitored daily.
Next, 1 million N2a cells were injected s.c in 6-weeks old nude mice. […] The treatment was repeated every second day and the tumor growth was monitored daily.
Treatment was repeated every second day and tumor growth was monitored daily.
To this aim, 1 million N2a cells were injected s.c in 6-weeks old CD1 nude mice. […] The treatment was repeated every second day and the tumor growth was monitored daily.

B1: PepB: Negr1 IgG-like domain, SEQ ID NO:16, strep-FLAG tagged recombinant protein (protein)
chain: PKIYDISNDMTINEGTNVTLTCLATGKPEPVISWRHISPSAKPFENGQYLDIYGITRDQAGEYECSAENDVSFPDVKKVRVI
modifications: strep-FLAG tag; PepB
For the molecule B1, the “N2a proliferation (cell number) at DIV5” value in data set [1] is reported as “did not”.

B2: PepA: first Negr1 IgG-like domain, SEQ ID NO:8, strep-FLAG tagged recombinant protein from HEK293 cells (protein)
chain: VDFPWAAVDNMLVRKGDTAVLRCYLEDGASKGAWLNRSSIIFAGGDKWSVDPRVSISTLNKRDYSLQIQNVDVTDDGPYTCSVQTQHTPRTMQVHL
modifications: strep-FLAG tag; PepA
Turning to B2, the “N2a growth (MTT) at DIV5” value in data set [2] is “significantly reduced N2a growth”. Besides, the “presence in mice tissues (STREP-pulldown)” value in [3] was “present in the tumor, liver, and kidney”. For the same molecule, in data set [1], the “N2a proliferation (cell number) at DIV5” value is reported as “significantly reduced N2a proliferation”. In addition, the ALK protein level entry in data set [4] is “robust reduction of ALK and MYCN protein levels”. Besides, the MYCN protein level entry in data set [5] is “robust reduction of ALK and MYCN protein levels”. In addition, the “growth of SH-SY5Y cells (MTT) at DIV5” value in data set [6] is recorded as “significantly reduce the growth”. In data set [7], the “growth of MCF7 cells (MTT) at DIV5” value is reported as “significantly reduce the growth”. Further, the “growth of SK-Mel5 cells (MTT) at DIV5” value in data set [8] is reported as “significantly reduce the growth”. In data set [9], the “growth of U87 cells (MTT) at DIV5” value is “significantly reduce the growth”. The “growth of A549 cells (MTT) at DIV5” value in data set [10] was “significantly reduce the growth”. Also, in data set [11], the “tumor vascularization (total area stained by CD34 and average vessel area)” value is “strongly reduced vascularization”. For the same molecule, the “tumor growth (tumor volume, fold over day 1)” value in data set [12] (2 μg in situ every second day, vs GFP) is on record as “robust growth reduction in tumor”; in data set [12] (10 μg in situ every second day, vs PEG-scramble peptide), “robust growth reduction in tumor”.

B3: PepC: Negr1 IgG-like domain, SEQ ID NO:17, strep-FLAG tagged recombinant protein (protein)
chain: APTIQEIKSGTVTPGRSGLIRCEGAGVPPPAFEWYKGEKRLFNGQQGIIIQNFSTRSILTVTNVTQEHFGNYTCVAANKLGTTNASLP
modifications: strep-FLAG tag; PepC
Regarding B3, the “N2a proliferation (cell number) at DIV5” value in [1] is “did not”.

The values are drawn from patent US20250049888A1, “USE OF THE NEGR1 PROTEIN AND BIOLOGICALLY ACTIVE FRAGMENTS THEREOF IN THE THERAPEUTIC TREATMENT OF ALK-RELATED DISEASES” (FONDAZIONE TELETHON ETS (70%), priority 2021, published 2025).
